Laboratory results as given in patent US20220289865A1 (MINERVA BIOTECHNOLOGIES, published 2022).
Each block holds one binder with its values, some of them ahead of it. Groups on a side chain read outwards from the residue. No end group written: not given here.

Experiments:
[1] = molecular target: T1, recombinant human NME7-AB (human, UniProt Q9Y5B8 92-376); assay: sandwich ELISA, PSMGFR-His bound to NME7 held by plate-bound PSMGFR, anti-Histag-HRP
T1 construct: Expressed in E. coli, lacks the DM10 domain, monomer; also called NME7 monomer
T1 sequence: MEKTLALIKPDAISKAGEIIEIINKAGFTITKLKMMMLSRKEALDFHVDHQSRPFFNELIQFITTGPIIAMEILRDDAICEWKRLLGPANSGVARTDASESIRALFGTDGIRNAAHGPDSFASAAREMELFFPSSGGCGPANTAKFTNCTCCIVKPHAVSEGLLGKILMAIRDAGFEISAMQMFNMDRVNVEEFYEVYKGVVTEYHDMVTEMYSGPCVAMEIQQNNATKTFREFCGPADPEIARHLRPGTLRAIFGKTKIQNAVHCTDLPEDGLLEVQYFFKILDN
Method: (§1) The PSMGFR peptide bearing a C-terminal Cysteine (PSMGFR-Cys) was covalently coupled to BSA using Imject Maleimide activated BSA kit (Thermo Fisher). PSMGFR-Cys coupled BSA was diluted to 10 ug/mL in 0.1M carbonate/bicarbonate buffer pH 9.6 and 50 uL was added to each well of a 96 well plate. After overnight incubation at 4° C., the plate was washed twice with PBS-T and a 3% BSA solution was added to block remaining binding site on the well. After 1 h at RT the plate was washed twice with PBS-T and NME7, diluted in PBS-T+1% BSA, was added at different concentrations. After 1 h at RT the plate was washed 3× with PBS-T and anti-NM23-H7 (B-9, Santa Cruz Biotechnology), diluted in PBS-T+1% BSA, was added at 1/500 dilution. […] After 1 h at RT the plate was washed 3× with PBS-T and binding of NME7 was measured at 415 nm using ABTS solution (Pierce). […]
(§2) After 1 h at RT the plate was washed 3× with PBS-T and HisTagged PSMGFR peptide (PSMGFR-His) or biotinylated PSMGFR peptide (PSMGFR-biotin), diluted in PBS-T+1% BSA, was added at different concentration. […] After 1 h at RT the plate was washed 3× with PBS-T and binding of PSMGFR peptide to NME7 already bound to another PSMGFR peptide (which could not signal by anti-His antibody or by streptavidin) coupled BSA was measured at 415 nm using a ABTS solution (Pierce).

[2] = molecular target: T1, recombinant human NME7-AB; assay: sandwich ELISA
Method: as §1, §2

[3] = molecular target: T1, recombinant human NME7-AB; assay: sandwich ELISA, PSMGFR-biotin bound to NME7 held by plate-bound PSMGFR, streptavidin-HRP
Method: as §1, §2

[4] = molecular target: T1, recombinant human NME7-AB; assay: ELISA, PSMGFR-Cys coupled BSA on the plate, NME7 detected with B-9
Method: The PSMGFR peptide bearing a C-terminal Cysteine (PSMGFR-Cys) was covalently coupled to BSA using Imject Maleimide activated BSA kit (Thermo Fisher). PSMGFR-Cys coupled BSA was diluted to 10 ug/mL in 0.1M carbonate/bicarbonate buffer pH 9.6 and 50 uL was added to each well of a 96 well plate. After overnight incubation at 4° C., the plate was washed twice with PBS-T and a 3% BSA solution was added to block remaining binding site on the well. After 1 h at RT the plate was washed twice with PBS-T and NME7, diluted in PBS-T+1% BSA, was added at different concentrations. After 1 h at RT the plate was washed 3× with PBS-T and anti-NM23-H7 (B-9, Santa Cruz Biotechnology), diluted in PBS-T+1% BSA, was added at 1/500 dilution. After 1 h at RT the plate was washed 3× with PBS-T and goat anti mouse-HRP, diluted in PBS-T+1% BSA, was added at 1/3333 dilution. After 1 h at RT the plate was washed 3× with PBS-T and binding of NME7 was measured at 415 nm using ABTS solution (Pierce).

binding result [1]: binds
B1: His-tagged PSMGFR peptide (peptide)
peptide: GTINVHDVETQFNQYKTEAASRYNLTISDVSVSDVPFPFSAQSGA
notes: also called PSMGFR-His; not shown: histidine tag

binding result [2]: binds
B2: MUC1* extracellular domain peptide (PSMGFR peptide) (peptide)
peptide: GTINVHDVETQFNQYKTEAASRYNLTISDVSVSDVPFPFSAQSGA
notes: also called synthetic MUC1* peptide; surface immobilized MUC1* peptide

binding result [3]: binds
Binder: GTINVHDVETQFNQYKTEAASRYNLTISDVSVSDVPFPFSAQSGA (also: biotinylated (position not given here), also called PSMGFR-biotin) [biotinylated PSMGFR peptide]

binding result [4]: binds
B3: PSMGFR peptide bearing a C-terminal Cysteine, coupled to BSA (peptide)
peptide: GTINVHDVETQFNQYKTEAASRYNLTISDVSVSDVPFPFSAQSGAC([maleimide-BSA])
notes: also called PSMGFR-Cys; PSMGFR-Cys coupled BSA
